One may read the IC50 as the concentration needed to halve the response being measured. Usually IC90 stands for the concentration needed for an effect of 90%.

Holding throughout (settings): remark: other sources report otherwise
In assay [1] the target is T1, SARS-CoV-2 Spike ectodomain (tri-S), Wuhan (SARS-CoV-2), P0DTC2. The assay can be described thus: competition ELISA vs bio-Cv2.5213. (An ELISA detects its analyte on a solid surface through an enzyme-linked reagent.)
The target in assay [2] is SARS-CoV-2 RBD (P.1) domain (SARS-CoV-2). The assay is described as follows: RBD-ACE2 competition ELISA. On the set-up: unit not given beside the values.
In assay [3] the target is T1, SARS-CoV-2 Spike ectodomain (tri-S), …. The assay can be described thus: tri-S/ACE2 blocking ELISA [B].
Assay [4] concerns the target SARS-CoV-2 RBD (B.1.351) domain (SARS-CoV-2). The assay is described as follows: ELISA. On the set-up: unit not given beside the values.
For assay [5], the target named is T1, SARS-CoV-2 Spike ectodomain (tri-S), …. The assay can be described thus: ELISA. Also noted: unit not given beside the values.
Assay [6] concerns the target SARS-CoV-2 RBD (P.1) domain (SARS-CoV-2). The assay is described as follows: ELISA. Also noted: unit not given beside the values.
Assay [7] deals with SARS-CoV-2 RBD (B.1.1.7) domain (SARS-CoV-2). The assay is described as follows: ELISA. Also noted: unit not given beside the values.
The target of assay [8] is T1, SARS-CoV-2 Spike ectodomain (tri-S), …. The assay is described as follows: competition ELISA, biotinylated tri-S to immobilized ACE2 ectodomain.

B1: Cv2.3194 (recombinant human IgG1) (antibody)
heavy: EVQLVESGGGLIQPGGSLRLSCAASGITVTSNYMSWVRQAPGKGLEWVSVIYPGGSTFYADSVKGRFTISRDNSKNTLYLQMNSLRAEDTAVYYCARDLVVYGMDVWGQGTTVTVSSASTKGPSVFPLAPSSKSTSGGTAALGCLVKDYFPEPVTVSWNSGALTSGVHTFPAVLQSSGLYSLSSVVTVPSSSLGTQTYICNVNHKPSNTKVDKKVEPKSCDKTHTCPPCPAPELLGGPSVFLFPPKPKDTLMISRTPEVTCVVVDVSHEDPEVKFNWYVDGVEVHNAKTKPREEQYNSTYRVVSVLTVLHQDWLNGKEYKCKVSNKALPAPIEKTISKAKQPREPQVYTLPPSRDELTKNQVSLTCLVKGFYPSDIAVEWESNGQPENNYKTTPPVLDSDGSFFLYSKLTVDKSRWQQGNVFSCSVMHEALHNHYTQKSLSLSPGK
light: EIVLTQSPGTLSLSPGERATLSCRASQSVSSSYLAWYQQKPGQAPRLLIYGASSRATGIPGRFSGSGSGTDFTLTISRLEPEDFAIYYCQQGVTFGGGTKVEIKRTVAAPSVFIFPPSDEQLKSGTASVVCLLNNFYPREAKVQWKVDNALQSGNSQESVTEQDSKDSTYSLSSTLTLSKADYEKHKVYACEVTHQGLSSPVTKSFNRGEC
Regarding B1, the % inhibition (competition) in assay [1] amounted to 84. The molecule further yielded an AUC (RBD block.) in assay [2] of 279. Also, the AUC of blocking in assay [3] was 181. Besides, the AUC in assay [4] turned out to be 4; in assay [5] it was 3; in assay [6], 3; in assay [7], 3. The molecule also showed an IC50 in assay [8] of 0.093 µg/mL. The molecule further showed an IC90 in assay [8] of 0.212 µg/mL.

The values are drawn from patent US20240336672A1.
